Assay results from US20090226960A1.

Columns and labels:
[1] = target: CD28 on Jurkat T cells (UniProt P10747); test: cell-based or functional assay
[2] = target: LFA-1 on Jurkat T cells (UniProt P20701); test: cell-based or functional assay
Sequence of LFA-1 on Jurkat T cells (P20701 26-1170 limits assumed, chain 1 of 2): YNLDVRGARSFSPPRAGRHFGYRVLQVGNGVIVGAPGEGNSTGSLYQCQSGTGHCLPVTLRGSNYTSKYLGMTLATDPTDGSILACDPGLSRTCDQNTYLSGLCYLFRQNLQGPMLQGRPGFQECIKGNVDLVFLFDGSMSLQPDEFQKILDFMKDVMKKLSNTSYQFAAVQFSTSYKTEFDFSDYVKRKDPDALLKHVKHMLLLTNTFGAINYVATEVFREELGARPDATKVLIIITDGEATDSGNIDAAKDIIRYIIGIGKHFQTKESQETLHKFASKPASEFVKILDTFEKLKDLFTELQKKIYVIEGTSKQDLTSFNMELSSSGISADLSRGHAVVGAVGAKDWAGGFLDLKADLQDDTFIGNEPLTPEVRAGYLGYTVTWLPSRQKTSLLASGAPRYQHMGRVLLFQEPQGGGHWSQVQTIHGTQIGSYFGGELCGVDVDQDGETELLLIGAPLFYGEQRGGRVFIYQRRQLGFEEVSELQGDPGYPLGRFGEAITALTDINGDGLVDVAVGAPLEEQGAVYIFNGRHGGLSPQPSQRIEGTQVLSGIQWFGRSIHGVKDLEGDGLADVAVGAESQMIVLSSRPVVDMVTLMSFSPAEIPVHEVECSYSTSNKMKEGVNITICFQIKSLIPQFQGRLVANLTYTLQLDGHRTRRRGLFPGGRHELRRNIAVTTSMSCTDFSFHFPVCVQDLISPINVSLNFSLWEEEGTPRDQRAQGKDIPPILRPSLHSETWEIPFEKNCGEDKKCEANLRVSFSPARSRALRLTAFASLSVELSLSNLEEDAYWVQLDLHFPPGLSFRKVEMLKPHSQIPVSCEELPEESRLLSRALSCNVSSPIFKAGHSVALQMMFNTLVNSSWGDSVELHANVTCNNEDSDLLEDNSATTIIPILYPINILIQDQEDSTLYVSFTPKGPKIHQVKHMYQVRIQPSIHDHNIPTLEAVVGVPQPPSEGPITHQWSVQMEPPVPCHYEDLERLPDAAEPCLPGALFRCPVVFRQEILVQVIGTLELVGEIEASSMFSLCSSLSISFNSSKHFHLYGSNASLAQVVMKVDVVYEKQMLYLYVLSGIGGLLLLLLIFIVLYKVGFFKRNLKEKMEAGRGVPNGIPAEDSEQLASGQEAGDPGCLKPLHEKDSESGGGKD
Sequence of LFA-1 on Jurkat T cells (P05107 23-769 limits assumed, chain 2 of 2, further chain): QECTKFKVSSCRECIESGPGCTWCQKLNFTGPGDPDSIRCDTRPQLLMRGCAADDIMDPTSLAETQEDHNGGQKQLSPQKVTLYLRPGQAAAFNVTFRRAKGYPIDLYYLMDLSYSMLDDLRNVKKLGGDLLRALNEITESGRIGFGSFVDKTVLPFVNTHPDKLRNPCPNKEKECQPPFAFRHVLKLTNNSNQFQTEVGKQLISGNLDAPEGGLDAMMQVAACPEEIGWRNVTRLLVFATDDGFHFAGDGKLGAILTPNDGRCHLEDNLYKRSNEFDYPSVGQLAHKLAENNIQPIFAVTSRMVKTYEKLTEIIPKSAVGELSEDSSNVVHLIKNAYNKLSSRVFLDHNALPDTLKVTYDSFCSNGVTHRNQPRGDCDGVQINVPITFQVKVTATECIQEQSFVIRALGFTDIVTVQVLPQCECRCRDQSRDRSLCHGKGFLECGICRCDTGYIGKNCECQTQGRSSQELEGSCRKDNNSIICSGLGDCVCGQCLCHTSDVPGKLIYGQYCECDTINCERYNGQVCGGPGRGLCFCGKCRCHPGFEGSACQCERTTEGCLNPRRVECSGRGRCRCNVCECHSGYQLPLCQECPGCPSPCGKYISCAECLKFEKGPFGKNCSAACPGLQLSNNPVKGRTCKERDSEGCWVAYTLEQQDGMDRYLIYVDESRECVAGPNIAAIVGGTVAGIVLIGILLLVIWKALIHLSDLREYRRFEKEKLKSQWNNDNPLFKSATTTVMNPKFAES

Substance: GPI-tethered extracellular domain of human B7-1 expressed from pYBS101 (from UniProt P33681 35-242) (ligand)
- Jurkat T cell adhesion to MembraneChip (fold against the control) [1]: 4

Substance: GPI-tethered extracellular domain of human ICAM-1 expressed from pYBS101 (from UniProt P05362 28-480) (ligand)
- Jurkat T cell adhesion to MembraneChip (fold against the control) [2]: 3
